B1: Homeobox protein SIX1 (Mus musculus), Q62231 (parent)
chain: MSMLPSFGFTQEQVACVCEVLQQGGNLERLGRFLWSLPACDHLHKNESVLKAKAVVAFHRGNFRELYKILESHQFSPHNHPKLQQLWLKAHYVEAEKLRGRPLGAVGKYRVRRKFPLPRTIWDGEETSYCFKEKSRGVLREWYAHNPYPSPREKRELAEATGLTTTQVSNWFKNRRQRDRAAEAKERENTENNNSSSNKQNQLSPLEGGKPLMSSSEEEFSPPQSPDQNSVLLLQSNMGHARSSNYSLPGLTASQPSHGLQAHQHQLQDSLLGPLTSSLVDLGS
partner: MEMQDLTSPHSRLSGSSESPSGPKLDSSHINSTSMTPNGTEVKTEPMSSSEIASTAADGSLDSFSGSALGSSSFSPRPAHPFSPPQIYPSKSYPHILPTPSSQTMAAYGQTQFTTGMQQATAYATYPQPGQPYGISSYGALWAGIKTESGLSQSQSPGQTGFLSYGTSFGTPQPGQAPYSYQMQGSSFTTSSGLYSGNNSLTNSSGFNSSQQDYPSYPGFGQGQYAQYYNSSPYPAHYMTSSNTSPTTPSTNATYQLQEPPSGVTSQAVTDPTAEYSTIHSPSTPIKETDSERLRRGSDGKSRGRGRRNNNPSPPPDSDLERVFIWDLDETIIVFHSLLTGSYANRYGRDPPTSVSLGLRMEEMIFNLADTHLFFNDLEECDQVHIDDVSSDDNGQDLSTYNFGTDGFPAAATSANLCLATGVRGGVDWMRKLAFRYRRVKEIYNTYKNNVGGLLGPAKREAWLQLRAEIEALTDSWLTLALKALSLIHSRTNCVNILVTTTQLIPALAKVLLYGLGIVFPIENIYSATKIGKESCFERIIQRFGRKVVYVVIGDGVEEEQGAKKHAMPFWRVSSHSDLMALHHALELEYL

Variants of: B1
Conditions: with eya1_mouse Eya1, P97767

Row | Variant | effect of a mutation on the interaction
1 | Y129C | decreasing interaction
2 | R110W | decreasing interaction

From IntAct's records for PubMed 15141091
